# From patent publication US10829756B2, “Discovery of enzymes from the alpha-keto acid decarboxylase family” (priority 2015, dated 2020)
# Changes are numbered by the printed parent chain. In names and notes the source's numbering stands.
# B1: Native KIVD (ketoisovalerate decarboxylase), wild type, SEQ ID NO:1 (Lactococcus lactis subsp. lactis) (protein)
# chain: MYTVGDYLLDRLHELGIEEIFGVPGDYNLQFLDQIISRKDMKWVGNANELNASYMADGYARTKKAAAFLTTFGVGELSAVNGLAGSYAENLPVVEIVGSPTSKVQNEGKFVHHTLADGDFKHFMKMHEPVTAARTLLTAENATVEIDRVLSALLKERKPVYINLPVDVAAAKAEKPSLPLKKENSTSNTSDQEILNKIQESLKNAKKPIVITGHEIISFGLEKTVSQFISKTKLPITTLNFGKSSVDEALPSFLGIYNGKLSEPNLKEFVESADFILMLGVKLTDSSTGAFTHHLNENKMISLNIDEGKIFNESIQNFDFESLISSLLDLSEIEYKGKYIDKKQEDFVPSNALLSQDRLWQAVENLTQSNETIVAEQGTSFFGASSIFLKPKSHFIGQPLWGSIGYTFPAALGSQIADKESRHLLFIGDGSLQLTVQELGLAIREKINPICFIINNDGYTVEREIHGPNQSYNDIPMWNYSKLPESFGATEERVVSKIVRTENEFVSVMKEAQADPNRMYWIELILAKEDAPKVLKKMGKLFAEQNKS
# B2: KIVD variant G402V/M538L/F542V (KIVD_VLV), SEQ ID NO:3 (Lactococcus lactis subsp. lactis; F542V/G402V/M538L) (protein)
# chain: B1 chain with G402V, M538L, F542V
# Legend:
# Experiment in all cases: Steady-state kinetics of 2-ketoacid decarboxylase (ADH/NADH coupled)
# Type in all cases: biochemical, Lactococcus lactis
# Details in all cases: other: pH 7.5, 21° C.
# [1] = substrate: CC(C)C(=O)C(=O)O
# Procedure: (§1) For the native KIVD and KIVD_VLV mutant, 2 ml overnight cultures of XL1B cells were transformed with pQE9 containing N-terminal his-tagged KIVD enzymes and grown in Terrific Broth (BP biomedical, Cat#3046-042) with 50 μg/mL of carbenicillin. (Fisher scientific, Cat# BP2648-5) For the GEOs, 2 ml overnight cultures of BLR cells were transformed with pet29b+ plasmid containing N-terminal his-tagged GEOs, and grown in Terrific Broth with 50 μg/mL of kanamycin. (Fisher scientific, Cat# BP906-5) These cultures were diluted 1:1000 in 500 mL of Terrific Broth with 1 mM MgSO4, 1% glucose, and 50ug/mL of corresponding antibiotics, then grown at 37° C. for 24 hours. Cultures were pelleted down at 4700 rpm for 10 mins and resuspended in auto-induction media (LB broth, 1 mM MgSO4, 0.1 mM TPP, 1×NPS, and 1×5052) for induction at 18° C. for 34 hours. At the end of induction, cells were centrifuged (4700 rpm, 4° C., 20 minutes), supernatant was removed, and cells were resuspended in 40 mL lysis buffer (100 mM Hepes pH 7.5, 100 mM NaCl, 10% glycerol, 0.1 mM TPP, 1 mM MgSO4, 10 mM Imidazole, 1 mM TCEP) and 1 mM PMSF) and sonicated for 2 minutes. Lysed cells were centrifuged at 4700 rpm at 4° C. for 60 mins to remove cell debris. Supernatant was loaded on gravity flow column with 700 μl of cobalt slurry (Fisher scientific, CAT# PI-90091) washed with 10 ml of wash buffer (100 mM Hepes pH 7.5, 100 mM NaCl, 10% glycerol, 0.1 mM TPP, 1 mM MgSO4, 10 mM Imidazole, and 1 mM TCEP). Cobalt bead bed was washed with 15 ml of wash buffer 5 times and proteins were eluted with 1000 μl of elution buffer (100 mM Hepes pH 7.5, 100 mM NaCl, 10% glycerol, 0.1 mM TPP, 1 mM MgSO4, 200 mM Imidazole, and 1 mM TCEP). Protein samples were immediately buffer exchanged with spin concentrators (Satorius, CAT# VS0112) into storage buffer (100 mM Hepes pH 7.5, 100 mM NaCl, 10% glycerol, 0.1 mM TPP, 1 mM MgSO4, and 1 mM TCEP) and stored at 4° C. until kinetics characterization. Protein concentrations were determined using a Synergy H1 spectrophotometer (Biotek) by measuring absorbance at 280 nm using their calculated extinction coefficients with ExPASy ProtParam Tool.^33 All other buffers and salts were purchased from Fisher Scientific unless otherwise specified.
# (§2) The kcat and KM values of selective KIVD mutants were measured for the substrates: C3, C5, isoC5, and C8. All substrates were dissolved in MilliQ H2O and pH was adjusted to 7.5 as necessary. Activity was measured at 0.005 mM to 10 mM substrates. The assay was performed in a 96-well half-area plate. Each reaction contains a final concentration of 0.5 mM NADH, 1 mM DTT, 0.1 mM TPP, 1 mM MgSO4, reaction buffer (100 mM Hepes, 100 mM NaCl, 10% glycerol, pH 7.5) and ADH (Sigma Aldrich, A7011, 10 U/ml for C3, C5 and C8 reactions, 500 U/ml for isoC5 reactions). A wide range of ketoacid decarboxylase concentrations, 4.5 nM-15 μM, were used according to the activity of each enzyme toward different substrates in order to perform steady state kinetics measurement over a period of an hour. Absorbance readings were taken every 1-minute at OD340 at 21° C. for 60 minutes using the Synergy H1. Kinetic parameters (kcat and KM) were determined by fitting initial velocity versus substrate concentration data to the Michaelis-Menten equation.
# [2] = substrate: CCCC(=O)C(=O)O
# Procedure: as §1, §2
# [3] = substrate: CCCCCCC(=O)C(=O)O
# Procedure: as §1, §2
# [4] = substrate: CCCC(=O)C(=O)O; remark: listed apart in the source
# Procedure: (§3) Since KIVD can already efficiently utilize C8 as a substrate, enzyme specificity is of primary importance. Therefore each mutant was screened against a panel of 2-ketoacid substrates in order to assess the specificity and activity of each mutant. (FIG. 11) This assay was performed using a high-throughput pH-dependent colorimetric assay of enzyme activity in crude cell extracts. Mutations that increased specificity for C8 were then combined to produce combinatorial mutants and screened for specificity with the colorimetric assays. […] The engineered enzyme KIVD_VLV has a 600-fold improvement in specificity between C8 and C5, in terms of catalytic efficiency, relative to the native KIVD.
# as §1, with “Supernatant was loaded on gravity flow column with 700 μl of cobalt slurry (Fisher scientific, CAT# PI-90091) washed with 10 ml of wash buffer (100 mM Hepes pH 7.5, 100 mM NaCl, 10% glycerol, 0.1 mM TPP, 1 mM MgSO4, 10 mM Imidazole, and 1 mM TCEP). Cobalt bead bed was washed with 15 ml of wash buffer 5 times and proteins were eluted with 1000 μl of elution buffer (100 mM Hepes pH 7.5, 100 mM NaCl, 10% glycerol, 0.1 mM TPP, 1 mM MgSO4, 200 mM Imidazole, and 1 mM TCEP). Protein samples were immediately buffer exchanged with spin concentrators (Satorius, CAT# VS0112) into storage buffer (100 mM Hepes pH 7.5, 100 mM NaCl, 10% glycerol, 0.1 mM TPP, 1 mM MgSO4, and 1 mM TCEP) and stored at 4° C. until kinetics characterization.” left out
# (§4) The kcat and KM values of selective KIVD mutants were measured for the substrates: C3, C5, isoC5, and C8. […] Activity was measured at 0.005 mM to 10 mM substrates. […] Absorbance readings were taken every 1-minute at OD340 at 21° C. for 60 minutes using the Synergy H1. Kinetic parameters (kcat and KM) were determined by fitting initial velocity versus substrate concentration data to the Michaelis-Menten equation.
# [5] = substrate: CCCCCCC(=O)C(=O)O; remark: listed apart in the source
# Procedure: as §3
# as §1, with “Supernatant was loaded on gravity flow column with 700 μl of cobalt slurry (Fisher scientific, CAT# PI-90091) washed with 10 ml of wash buffer (100 mM Hepes pH 7.5, 100 mM NaCl, 10% glycerol, 0.1 mM TPP, 1 mM MgSO4, 10 mM Imidazole, and 1 mM TCEP). Cobalt bead bed was washed with 15 ml of wash buffer 5 times and proteins were eluted with 1000 μl of elution buffer (100 mM Hepes pH 7.5, 100 mM NaCl, 10% glycerol, 0.1 mM TPP, 1 mM MgSO4, 200 mM Imidazole, and 1 mM TCEP). Protein samples were immediately buffer exchanged with spin concentrators (Satorius, CAT# VS0112) into storage buffer (100 mM Hepes pH 7.5, 100 mM NaCl, 10% glycerol, 0.1 mM TPP, 1 mM MgSO4, and 1 mM TCEP) and stored at 4° C. until kinetics characterization.” left out
# as §4
Protein,Km [1],kcat [1],Km [2],kcat [2],Km [3],kcat [3],Km [4],kcat [4],Km [5],kcat [5]
B1,4500 ± 300 µM,61 ± 2.1 s⁻¹,1500 ± 100 µM,14.3 ± 0.2 s⁻¹,210 ± 40 µM,7 ± 0.3 s⁻¹,,,,
B2,,,,,,,10000 ± 1000 µM,0.013 ± 0.001 s⁻¹,180 ± 50 µM,0.5 ± 0.03 s⁻¹
